Paper PMC5824709, “Metabolite profiling with HPLC-ICP-MS as a tool for in vivo characterization of imaging probes” (EJNMMI Radiopharmacy and Chemistry, 2018)
Where a SMILES comes first, the peptide text is derived from it. Bridges are numbered along the chain shown (N, C = ends). [ ]: non-standard residue; d: D form. The star is where a group is joined. DOTA(p-xylylenediamine) = O=C(O)CN1CCN(CC(=O)O)CCN(CC(=O)NCc2ccc(CN*)cc2)CCN(CC(=O)O)CC1; DOTA = O=C(O)CN1CCN(CC(=O)O)CCN(CC(=O)*)CCN(CC(=O)O)CC1; Tyr(3-Cl) = N[C@@H](Cc1ccc(O)c(Cl)c1)C(=O)O; Hyp = O=C(O)[C@@H]1C[C@@H](O)CN1

Key:
[1] = Plasma pharmacokinetics and metabolite profiling by reverse phase HPLC-ICP-MS after i.v. injection; format: in vivo; conditions: rats; for metabolic behavior in plasma over time (degradation of intact probe): i.v., plasma 5-60 min post injection, C18 HPLC-ICP-MS chromatograms; for relative amount of metabolites with time post injection: plasma, C18 HPLC-ICP-MS, Ga-FBP18: metabolite group C (shortest retention times), In-FBP19: all metabolites
Method: (§1) An Agilent 8800 ICP-MSMS interfaced to an Agilent 1260 HPLC was used. 20% option gas (20% O2, 80% Ar) was added to pyrolyze any carbon deposits on the cones from the HPLC mobile phase while 40% O2 was used as cell gas when conducting reverse phase analysis. HPLC method 3: C18 column (Kromasil 5 μm C18, 250 × 4.60 mm), 0.8 mL/min, mobile phase A (water, 10 mM NaOAc), mobile phase B (90% acetonitrile, 10% 10 mM NaOAc), gradient: min. 0–2: 5% B; min 12: 50% B; min 13: 95% B; min 15: 95% B; min 16: 5% B; min 18: 5% B. HPLC method 4: size exclusion chromatography (SEC) Column (Phenomenex BioSep-SEC-s2000, 300 × 7.80 mm), 1 mL/min, mobile phase TBS, isocratic, 18 min. The SEC column was standardized using a protein marker kit (Sigma-Aldrich, P/N: MWGF1000). Ga(DOTA) and In(DOTA) were used to determine the limit of detection and limit of quantification, and to generate a calibration curve for quantification using RP-separation. Calibration standards of Ga(DOTA) and In(DOTA) ranging from 10 nM to 1 μM were prepared by serial dilution from stocks. 100 μL of each standard was analyzed by direct injection onto the reverse phase HPLC-ICP-MS (HPLC method 3), and the integrals of each metal-FBP peak were recorded. An aliquot of each calibration standard was then digested 1:1 with nitric acid and incubated overnight at 37 °C before being analyzed for its metal concentration by ICP-MS. These metal concentrations were plotted against the previously recorded integrals to generate the metal-FBP calibration plots (Additional file 1: Figure S1). Limits of detection and quantification were calculated using an established method (MacDougall & Crummett [1980]).
Ga-FBP17, Ga-FBP18, In-FBP15, In-FBP19 (50–150 nmol, with concentrations determined by direct inject ICP-MS) in 0.6 mL sterile PBS were injected either individually or as a mixture of Ga-FBP17/In-FBP15 or Ga-FBP18/In-FBP19 into anesthetized rats via cannulated femoral vein, followed by saline flush. Blood (0.2 mL) was drawn at time points 5, 10, 15, 30 and 60 min post injection via cannulated femoral artery into heparin-containing tubes. Tubes were centrifuged at 2000 g for 10 min to separate the plasma. Plasma was diluted 1:1 with chelex-treated TBS and 100 μL of sample was injected onto the HPLC-ICP-MSMS, scanning for Ga and In at m/z = 69 and 115, respectively. Peaks were integrated and measured against a standard calibration curve.

[2] = Size exclusion chromatography HPLC-ICP-MS of plasma samples to detect transchelation to plasma proteins; format: in vivo; conditions: rats, i.v., SEC HPLC-ICP-MS (BioSep-SEC-s2000, TBS), compared with pure Ga-/In-transferrin standard
Method: Ga and In transferrin complexes were synthesized using a 1.3 equivalent excess of protein and purification with Zeba™ Spin Desalting Columns (ThermoFisher Scientific), to remove unchelated Ga and In. TBS buffer was prepared by mixing 150 mM NaCl, 50 mM Tris and 5 mM NaHCO3 followed by stirring over chelex overnight and subsequent filtration.
as §1, with “The SEC column was standardized using a protein marker kit (Sigma-Aldrich, P/N: MWGF1000).” left out, “Calibration standards of Ga(DOTA) and In(DOTA) ranging from 10 nM to 1 μM were prepared by serial dilution from stocks.” left out
Ga-FBP17, Ga-FBP18, In-FBP15, In-FBP19 (50–150 nmol, with concentrations determined by direct inject ICP-MS) in 0.6 mL sterile PBS were injected either individually or as a mixture of Ga-FBP17/In-FBP15 or Ga-FBP18/In-FBP19 into anesthetized rats via cannulated femoral vein, followed by saline flush. […]

Row | Structure (SMILES) | half-life ([1]; rat, iv, i.v. via femoral vein, 50–150 nmol in PBS, plasma from blood drawn 5, 10, 15, 30, 60 min post injection, intact probe quantified by C18 HPLC-ICP-MS (m/z 69 Ga, 115 In), monoexponential clearance assumed, read-out: calculated half-life of the intact complex) [min] | metabolic behavior in plasma over time (degradation of intact probe) [1] | transchelation to transferrin / high molecular weight species in plasma [2] | relative amount of metabolites with time post injection [1]
1 | CC[C@H](C)[C@H](NC(=O)[C@H](Cc1c[nH]cn1)NC(=O)[C@@H]1CSSC[C@H](NC(=O)[C@H](Cc2c[nH]cn2)NC(=O)[C@H](Cc2ccccc2)NC(=O)CN2CCN(CC(=O)O)CCN(CC(=O)O)CCN(CC(=O)O)CC2)C(=O)N2C[C@H](O)C[C@H]2C(=O)N[C@@H](Cc2ccc(O)c(Cl)c2)C(=O)N[C@@H](CC(=O)O)C(=O)N[C@@H](CC(C)C)C(=O)N1)C(=O)N[C@@H](CC(C)C)C(=O)NCc1ccc(CNC(=O)CN2CCN(CC(=O)O)CCN(CC(=O)O)CCN(CC(=O)O)CC2)cc1 [Ga-FBP17] ({DOTA}-FHC[Hyp][Tyr(3-Cl)]DLCHIL-{DOTA(p-xylylenediamine)}; disulfide 3-8) | 9 | only minimal degradation over time | did not observe Ga-transferrin or other high molecular weight species | 
2 | CC[C@H](C)[C@H](NC(=O)[C@H](Cc1c[nH]c2ccccc12)NC(=O)[C@@H]1CSSC[C@H](NC(=O)[C@@H](CCC(=O)O)NC(=O)[C@H](Cc2c[nH]c3ccccc23)NC(=O)CN2CCN(CC(=O)O)CCN(CC(=O)O)CCN(CC(=O)O)CC2)C(=O)N2C[C@H](O)C[C@H]2C(=O)N[C@@H](Cc2ccc(O)c(Cl)c2)C(=O)NCC(=O)N[C@@H](CC(C)C)C(=O)N1)C(=O)N[C@@H](CCC(N)=O)C(=O)NCc1ccc(CNC(=O)CN2CCN(CC(=O)O)CCN(CC(=O)O)CCN(CC(=O)O)CC2)cc1 [Ga-FBP18] ({DOTA}-W[dE]C[Hyp][Tyr(3-Cl)]GLCWIQ-{DOTA(p-xylylenediamine)}; disulfide 3-8) |  | rapid metabolism | identified Ga-transferrin as a metabolite | increased with time post injection
3 | CC[C@H](C)[C@H](NC(=O)[C@H](Cc1c[nH]cn1)NC(=O)[C@@H]1CSSC[C@H](NC(=O)[C@H](Cc2c[nH]cn2)NC(=O)[C@H](Cc2ccccc2)NC(=O)CN2CCN(CC(=O)O)CCN(CC(=O)O)CCN(CC(=O)O)CC2)C(=O)N2C[C@H](O)C[C@H]2C(=O)N[C@@H](Cc2ccc(O)c(Cl)c2)C(=O)N[C@@H](CC(=O)O)C(=O)N[C@@H](CC(C)C)C(=O)N1)C(=O)N[C@@H](CC(C)C)C(=O)NCc1ccc(CNC(=O)CN2CCN(CC(=O)O)CCN(CC(=O)O)CCN(CC(=O)O)CC2)cc1 [In-FBP15] ({DOTA}-FHC[Hyp][Tyr(3-Cl)]DLCHIL-{DOTA(p-xylylenediamine)}; disulfide 3-8) |  | only minimal degradation over time |  | 
4 | CC[C@H](C)[C@H](NC(=O)[C@H](Cc1c[nH]c2ccccc12)NC(=O)[C@@H]1CSSC[C@H](NC(=O)[C@@H](CCC(=O)O)NC(=O)[C@H](Cc2c[nH]c3ccccc23)NC(=O)CN2CCN(CC(=O)O)CCN(CC(=O)O)CCN(CC(=O)O)CC2)C(=O)N2C[C@H](O)C[C@H]2C(=O)N[C@@H](Cc2ccc(O)c(Cl)c2)C(=O)NCC(=O)N[C@@H](CC(C)C)C(=O)N1)C(=O)N[C@@H](CCC(N)=O)C(=O)NCc1ccc(CNC(=O)CN2CCN(CC(=O)O)CCN(CC(=O)O)CCN(CC(=O)O)CC2)cc1 [In-FBP19] ({DOTA}-W[dE]C[Hyp][Tyr(3-Cl)]GLCWIQ-{DOTA(p-xylylenediamine)}; disulfide 3-8) |  | rapid metabolism | did not identify In-transferrin in the plasma samples | roughly constant with time
